Laboratory results: paper PMC10371762 (Bioactive Materials, 2023)

T1: human BMPR-II extracellular domain (human, UniProt Q13873 32-150, biotinylated at a 1:1 molar stoichiometric ratio using Sulfo-NHS-LC-biotin)
T1 sequence: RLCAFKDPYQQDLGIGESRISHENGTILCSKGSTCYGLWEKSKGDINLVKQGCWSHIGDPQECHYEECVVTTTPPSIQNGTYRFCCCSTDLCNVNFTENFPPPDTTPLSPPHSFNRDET

T2: Noggin (UniProt Q13253 28-232, biotinylated)
T2 sequence: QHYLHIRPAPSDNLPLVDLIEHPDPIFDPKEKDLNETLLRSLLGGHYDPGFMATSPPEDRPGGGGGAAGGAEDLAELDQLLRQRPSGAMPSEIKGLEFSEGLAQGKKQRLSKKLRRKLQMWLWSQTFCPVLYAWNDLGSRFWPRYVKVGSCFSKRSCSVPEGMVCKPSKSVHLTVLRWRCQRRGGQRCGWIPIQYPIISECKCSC

B1: BMP9 HB (ligand)
chain: MAQAHKHQRKRLKSSCQKTSLRVNFEDIGWDSWIIAPKEYEAYECKGGCFFPLADDVTPTKHAIVQTLVHLKFPTKVGKACCVPTKLSPISVLYKDDMGVPTLKYHYEGMSVAECGCR
B2: BMP9 WT (ligand)
chain: SAGAGSHCQKTSLRVNFEDIGWDSWIIAPKEYEAYECKGGCFFPLADDVTPTKHAIVQTLVHLKFPTKVGKACCVPTKLSPISVLYKDDMGVPTLKYHYEGMSVAECGCR
B3: BMP2 WT (ligand)
chain: QAKHKQRKRLKSSCKRHPLYVDFSDVGWNDWIVAPPGYHAFYCHGECPFPLADHLNSTNHAIVQTLVNSVNSKIPKACCVPTELSAISMLYLDENEKVVLKNYQDMVVEGCGCR

Key:
Assay in all cases: SPR
[1] = target: T1, human BMPR-II extracellular domain
[2] = target: human ALK1 extracellular domain (human, UniProt P37023 22-118, biotinylated at a 1:1 molar stoichiometric ratio using Sulfo-NHS-LC-biotin)
[3] = target: T2, Noggin

Sequence of human ALK1 extracellular domain (P37023 22-118): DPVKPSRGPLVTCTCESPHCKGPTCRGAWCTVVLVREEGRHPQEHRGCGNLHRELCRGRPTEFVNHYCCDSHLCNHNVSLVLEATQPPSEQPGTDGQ

| Binder | Kd [1] [nM] | Kd [2] [nM] | Kd [3] [nM] |
| --- | --- | --- | --- |
| B1 | 11.6 | 5.59 | – |
| B2 | 13.3 | – | – |
| B3 | 66.9 | – | 1.2 |
